# According to patent publication US20090155255A1 (published 2009):
# T1: soluble CD23 antigen (soluble and monomeric form) (UniProt P06734 150-321)
# T1 chain: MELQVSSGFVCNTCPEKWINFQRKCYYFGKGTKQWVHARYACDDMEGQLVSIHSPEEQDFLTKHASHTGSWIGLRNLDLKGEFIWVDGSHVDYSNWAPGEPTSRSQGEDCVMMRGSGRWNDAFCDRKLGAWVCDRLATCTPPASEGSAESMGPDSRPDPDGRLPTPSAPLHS
# Key:
# [1] = target: IEH-239; experiment: DELFIA
# [2] = target: IEH-248; experiment: DELFIA
# [3] = target: IEH-245; experiment: DELFIA
# [4] = target: IEH-243; experiment: DELFIA
# [5] = target: IEH-251; experiment: DELFIA
# [6] = target: IEH-241; experiment: DELFIA
# [7] = target: IEH-250; experiment: DELFIA
# [8] = target: IEH-248; experiment: Biacore
# [9] = target: IEH-245; experiment: Biacore
# [10] = target: IEH-243; experiment: Biacore
# [11] = target: IEH-251; experiment: Biacore
# [12] = target: IEH-241; experiment: Biacore
# [13] = target: IEH-250; experiment: Biacore
# [14] = target: T1, soluble CD23 antigen (soluble and …); experiment: Biacore
# [15] = target: T1, soluble CD23 antigen (soluble and …); experiment: DELFIA
# [16] = target: T1, soluble CD23 antigen (soluble and …); experiment: FRET competition
Binder,Kd [1] [nM],Kd [2] [nM],Kd [3] [nM],Kd [4] [nM],Kd [5] [nM],Kd [6] [nM],Kd [7] [nM],Kd [8] [nM],Kd [9] [nM],Kd [10] [nM],Kd [11] [nM],Kd [12] [nM],Kd [13] [nM],Kd [14] [nM],Kd [15] [nM],IC50 [16] [µg/mL]
CD23 (receptor) MELQVSSGFVCNTCPEKWINFQRKCYYFGKGTKQWVHARYACDDMEGQLVSIHSPEEQDFLTKHASHTGSWIGLRNLDLKGEFIWVDGSHVDYSNWAPGEPTSRSQGEDCVMMRGSGRWNDAFCDRKLGAWVCDRLATCTPPASEGSAESMGPDSRPDPDGRLPTPSAPLHS,3,2.4,1,1.2,1.5,1.2,2.6,1.3,1.1,2.8,3.2,4.6,4.3,–,–,–
stabilized p5E8 pIEH252 scFv (scFv) scFv: DIQMTQSPSSLSASVGDRVTITCRASQDIRYYLNWYQQKPGKAPKLLIYSASSLQSGVPSRFSGSGSGTEFTLTVSSLQPEDAATYYCLQVYSTPRTFGQGTKVEIKGGGGSGGGGSGGGGSEVQLVQSGGGLAKPGGSLRLSCAASGFRFTFSNYYMDWVRQAPGQGLEWVGRISSSGDPTWYADSVKGRFTISRDNAKNTLFLQMNSLRAEDTAVYYCASLTTGSDSWGQGVLVTVSS,–,–,–,–,–,–,–,–,–,–,–,–,–,0.8,1.2,0.052
stabilized p5E8 pIEH246 scFv (scFv) scFv: DIQMTQSPSSLSASVGDRVTITCRASQDIRYYLNWYQQKPGKAPKLLIYSASSLQSGVPSRFSGSGSGTEFTLTVSSLQPEDAATYYCLQVYSTPRTFGQGTKVEIKGGGGSGGGGSGGGGSEVQLVQSGGGLAKPGGSLRLSCAASGFRFTFNNYYMDWVRQAPGQGLEWVGRISSSGDHTWYADSVKGRFTISRENAKNTLFLQMNSLRAEDTAVYYCASLTTGSDSWGQGVLVTVSS,–,–,–,–,–,–,–,–,–,–,–,–,–,0.9,1,0.061
